Measurements as given in paper PMC9739371, “Deciphering the Binding of the Nuclear Localization Sequence of Myc Protein to the Nuclear Carrier Importin α3” (International Journal of Molecular Sciences, 2022).
Where “and” joins values, the source holds several entries; their conditions need not be identical. Equal entries are not always repeated.

Legend:
[1] = target: T1, IBB-depleted species of importin α3 (residues 64-521 of the intact protein) (human, UniProt O00629 64-521); experiment: BLI; BLItz system; His-tagged Impα3 or ΔImpα3 immobilised on His-tag biosensors at 0.5 µM; NLS-Myc 1 to 7 µM in solution; 10x kinetics buffer of the manufacturer; 25 °C; kon and koff from a pseudo-first-order plot; details: both partners purified
T1 construct: also called ΔImpα3; truncated species of Impα3; source: purified as previously described [18,19,20]
T1 sequence (looked up): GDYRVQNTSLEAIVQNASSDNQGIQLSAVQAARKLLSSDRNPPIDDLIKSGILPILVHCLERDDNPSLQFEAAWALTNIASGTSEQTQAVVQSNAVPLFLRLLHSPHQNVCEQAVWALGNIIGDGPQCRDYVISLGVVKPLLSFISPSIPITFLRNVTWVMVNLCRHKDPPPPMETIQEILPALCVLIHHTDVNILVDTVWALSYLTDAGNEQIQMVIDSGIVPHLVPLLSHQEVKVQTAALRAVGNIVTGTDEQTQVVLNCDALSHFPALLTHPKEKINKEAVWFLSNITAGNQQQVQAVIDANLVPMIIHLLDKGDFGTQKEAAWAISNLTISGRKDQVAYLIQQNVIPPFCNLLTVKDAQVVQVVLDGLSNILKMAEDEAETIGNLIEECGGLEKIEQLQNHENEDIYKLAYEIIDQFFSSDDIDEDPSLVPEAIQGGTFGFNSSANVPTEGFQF

[2] = target: T2, human importin α3 isoform (residues 1-521) (human, UniProt O00629 1-521); experiment: as above; details: both partners purified
T2 construct: importin α3 (Impα3), human, residues 1-521, with the N-terminal IBB domain; also called Impα3; source: purified as previously described [18,19,20]
T2 sequence (looked up): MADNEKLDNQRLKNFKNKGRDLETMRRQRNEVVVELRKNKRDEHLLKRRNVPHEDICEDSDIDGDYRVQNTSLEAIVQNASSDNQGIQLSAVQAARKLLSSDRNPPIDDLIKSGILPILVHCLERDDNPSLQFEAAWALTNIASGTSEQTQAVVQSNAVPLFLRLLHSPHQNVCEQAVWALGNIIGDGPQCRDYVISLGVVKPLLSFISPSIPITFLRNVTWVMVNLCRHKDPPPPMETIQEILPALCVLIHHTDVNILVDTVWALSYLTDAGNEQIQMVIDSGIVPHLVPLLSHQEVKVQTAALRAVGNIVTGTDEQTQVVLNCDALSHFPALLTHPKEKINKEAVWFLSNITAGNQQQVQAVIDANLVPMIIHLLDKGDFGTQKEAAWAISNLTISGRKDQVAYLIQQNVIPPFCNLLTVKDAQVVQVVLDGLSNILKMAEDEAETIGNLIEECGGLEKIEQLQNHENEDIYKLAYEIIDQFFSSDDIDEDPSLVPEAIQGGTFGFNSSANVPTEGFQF

B1: NLS-Myc peptide (Ala310-Asn339 of human c-Myc) (peptide)
peptide: AAPPSTRKDYPAAKRVKLDSVRVLRQISNN
notes: human c-Myc, residues Ala310-Asn339: canonical NLS Pro320-Asp328 with the flanking residues of native Myc; also called the peptide; source: synthetic peptide, produced by NZYtech (Lisbon, Portugal), purity larger than 95%
Kd [1]: 60 ± 30 nM | Kd [2]: 500 nM and 600 nM
